Assay: yeast display, Sf9 membrane polyspecificity reagent, FACS + sequencing; frameworks hold sequencing errors
Method in brief: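 Galactose induction of a Saccharomyces cerevisiae BJ5465 synthetic nanobody display library ran 36–48 hours. The cells were then stained for 1 hour at 4 °C with 10% biotinylated, detergent-solubilized Sf9 membrane reagent, pulled down on streptavidin microbeads and FACS-sorted into low and high (top ~1%) gates on expression and reagent-binding fluorescence. Labels for polyreactivity follow the gate of origin.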

| Sequence | polyreactivity (PSR sort gate) |
| --- | --- |
| QVQLVESGGGLVQAGGSLRLSCAASGFTSAPYAMGWNRQAPGKERELVAAISSGDTTSYADSVKGRFTISRDNEKNTVYFQMNSLKPEDTAVYYCAAVYFNVIESYKTAGYDYWGQGTQVTVSS | low polyreactivity |
| QVQLVESGGGLVQAGGSLRLSCAASGFTSGNYAMGWYRQAPGKERELVAAIDSDGSTYYADSVKGRFTISRDNAKNTVYLQMKSLKPEDTAVYYCNKDIKSATDSYHYEDDYWGQGTQVTVSS | low polyreactivity |
| QVQLVESGGGLVQAGGSLRLSCAASGFTSPIYAMGWYRQAPGKERELVAVIDWSSGITYYADSVKGRFTISRDNAKNTVYLQMNSLKPEDTAVYYCAAEYRGRGWRYGYDYWGQGTQVTVSS | high polyreactivity |
| QVQLVESGGGLVQAGGSLRLSCAASGFTSRNYAMGWYSQARGKARELVAVFSKSGTSTYYADSVKGRFTISRDHAKNTVYLQMTSLKPEDTAVYYCSADTGHLSNSMDYWGQGTQVTVSS | high polyreactivity |
| QVQLVESGGGLVQAGGSLRLSCAASGFTSWDNDMGWYRQAPGKERELVAAMSRGGSTNYADSVKGRFTISRDNAKNTVYLQMNSLKPEDTAVYYCAAGSYAGFAVIGYYYWGQGTQVTVSS | low polyreactivity |
| QVQLVESGGGLVQAGGSLRLSCAASGFTTSQYAMGWYRQAPGKERDLVAAITSSGSSTYYADSVKGRFTISRDNAKNTVYLQMNSLKPEDTAVYYFNTDAYHRYPGSVWYYYWGQGTQVTVSS | high polyreactivity |
| QVQLVESGGGLVQAGGSLRLSCAASGFTVGLYAMGWYRQAPGKERELVAAISGGGSTNYADSVKGRFTISRDNAKNTVYLQMNSLKPEDTAVYYCNKAYHNVYYNWYLRYYSYDYWGQGTQVTGSS | low polyreactivity |
| QVQLVESGGGLVQAGGSLRLSCAASGFTVGSNAMGWYRQAPGKERELVAAISRSSGRTYYADSVKGRFTISRDNAKNTVDLQMNSLKPEDTAVYYCAAQTRYRISLQYYYWGQGTQVTVSS | high polyreactivity |
| QVQLVESGGGLVQAGGSLRLSCAASGFTVGYAMGWYRQAPGKEREFVAAITRGGGTRTSYADSVKGRFTISRDNAKNTVYLQMNSLKPEDTAVSYCAARRWWSPRTQYDYWGQGTQVTVSS | high polyreactivity |
| QVQLVESGGGLVQAGGSLRLSCAASGFTVPGYAMGWYRQAPGNERELVAAINSSGGRTYYADSVKGRFTISRDTAKITVYFQMTSLKPEDTAVYYCAATRWYIRARYNYWGQGTQVTVSS | high polyreactivity |
| QVQLVESGGGLVQAGGSLRLSCAASGFTYIDYAMGWYRQAPGKERELVAAITSRGGTTYYADSVKGRFTISRDNAKNTVYLLMNSLKPEDTAVYYCNAGSSFWVSRIGYDYWGQGTQVTVSS | high polyreactivity |
| QVQLVESGGGLVQAGGSLRLSCAASGFTYIRYAMGWSRKATGKERQLVAAIRGTGTSTYFADSVKGRFTISRDNGKNTVYLQMNSLKPEETAVYYCNNVSGRSPYTRYDYWGQGTQVTVSS | low polyreactivity |
| QVQLVESGGGLVQAGGSLRLSCAASGFTYNRYAMGWYRQAPGKERELVAGISWGGGSTYYADSVKGRFTISRDNAKNTVYLQMNSLKPEDTAVYYCAAGWQHYRRYGSYDYWGQGTQVTVSS | high polyreactivity |
| QVQLVESGGGLVQAGGSLRLSCAASGFTYPGYAMGWYRQAPRKERELVASITDNGANTYYADSVKGRFTISRDNAKNTVYLQMNSLKPEDTAVYYCAADPGRVTRVGVRYYYWGQGTQVTVSS | high polyreactivity |
| QVQLVESGGGLVQAGGSLRLSCAASGFTYRKYALGWYRQAPGKERELVAVINIVGSTYYADSVKGRFTISRDNAKNTVYLQMYSLTPEDTAVYYCAADWSYRLKYYWYGGFKYWGQGTQVTVSS | high polyreactivity |
| QVQLVESGGGLVQAGGSLRLSCAASGFTYSRYAMGWYRQAPGKERELVAAIRLRDGITYYADSVKGRITISRDNAKNTVYLQMNRLKPEDTAVYYCNAVNRTPVSQLDYWGQGTQVTVSS | high polyreactivity |

| Sequence | polyreactivity (PSR sort gate) |
| --- | --- |
| QVQLVESGGGLVQAGGSLRLSCAASGFTYYAMGWYRQAPGKERELVAAITRGGSTYYADSVKGRFTISRDNAKNTVYLQMNSLKPEDTAVYYCAVLQRAARLGYNYWGQGTQVTVSS | high polyreactivity |
| QVQLVESGGGLVQAGGSLRLSCAASGFTYYIYAMGWYRQAPGKERELVAAISRSAGITNYADSVKGRFTISRDNAKNTVYLQMNSLKAEDTAVYYCAAEVGYWGYQISGDYWGQGTQVTVSS | low polyreactivity |
| QVQLVESGGGLVQAGGSLRLSCAASGFVWYTMGWYRQAPGKERELVADITYRGGSTYYADSVKGRFTISRDNAKNTVYLQMNSLKPEDTAVYYCAAKPHWYWRYEYWGQGTQVTVSS | high polyreactivity |
| QVQLVESGGGLVQAGGSLRLSCAASGFYYGMGWYRQAPGKERELVAAISRGGSTYYADSVKGRFTISRDNAKNTVYLQMNSLKPEDTAVYYCAATYRSLYGSRMGYWGQGTQVTVSS | high polyreactivity |
| QVQLVESGGGLVQAGGSLRLSCAASGFYYYVMVWYRQAPGKERELVAGITASGGSTYADSVKGRFTISRDNAMYTVYLQMNSLKPEDTAVYYCAAGFVGTNYTLHGFSYEYWGQGTQVTVSS | low polyreactivity |
| QVQLVESGGGLVQAGGSLRLSCAASGGIFAPNAKGWYRQAPGKEREFVAAISTGGGSTRYADSVKGRFTISRDNAKYTVYLQMNSLKPEDTAVYYCAATRVGVRRMDYWGQGTQVTVSS | low polyreactivity |
| QVQLVESGGGLVQAGGSLRLSCAASGGIFAPYAMGWYRTAPGKERELVAAISSSDGSTYYADSVKGRFTISRDNAQNTVYLHMNSLKTVDTAVYYCAADYREDYGYWGEGTQVTVSS | low polyreactivity |
| QVQLVESGGGLVQAGGSLRLSCAASGGIFAQYAMGWYRQAPGKEREFVATISTSGGSTYYADSVKGRYTISRDNAKNTVYLQMNSLKPEDTAVYYCARYSYRGTNVRYDYWGQGTQVTVSS | high polyreactivity |
| QVQLVESGGGLVQAGGSLRLSCAASGGIFARYAMGWYRQAPGKEREFVAAISFSGASTYYADSVKGRFTISRDNAKNTVYLQMNSLKPEDTAVYYCAAYWDAEGRRYTRLDYWGQGTQVTVSS | low polyreactivity |
| QVQLVESGGGLVQAGGSLRLSCAASGGIFARYVKGWYRQAPGKERELVAAISLSGGSTYYADSVKGRFTISRDNAKKTVYLQMNSLNPEDTAVYYCAAIRKKRLTYDYWGQGTEVTVSS | high polyreactivity |
| QVQLVESGGGLVQAGGSLRLSCAASGGIFAVNVMGWYRQAPGKERELVAAITSTGSTYYADSVKGRFTISRDNAKNTVYLQMNSLKPEDTAVYYCASDYVYYDSYDDTVFGYEYWGQGTQVTVSS | high polyreactivity |
| QVQLVESGGGLVQAGGSLRLSCAASGGIFAYYVMGWYRQAPGKERELVASISSGGGTYYADSVKGRFTISRDNAKNTVYLQMNSLKPEDTAVYYCAARWLRYVYPDGHLFWYDYWGQGTQVTVSS | high polyreactivity |
| QVQLVESGGGLVQAGGSLRLSCAASGGIFDDYAMGWYRQAPGKERELVAAISSSGGSTYYADSVKGRFTISRDNAKNTVYLQMNSLKPEDTAVYYCNADRRRRFGYWGQGTQVTVSS | high polyreactivity |
| QVQLVESGGGLVQAGGSLRLSCAASGGIFDENAMGWYRQAPGKARELVAGITQRGASTNYADSVKGRFTISRDNAKNTVYLQMNSLKPEDTAVYYCDADVGTVISYEYWGQGTQVTVSS | low polyreactivity |
| QVQLVESGGGLVQAGGSLRLSCAASGGIFFTYAMGWYRQAPGKERELVAGISWSDGSTYADSVKGRFTISRDNAKNTVYLQMNSLKPEDTAVYYCNKRIYDLFLSPAAGGYWGQGTQVTVSS | low polyreactivity |

From the nanobody polyreactivity screen of Harvey et al. (2022)
